This experiment deals with A型肉毒毒素 (botulinum toxin type A, sample solution of Example 4) (Clostridium botulinum) (UniProt P0DPI0).

This passage reports 检测限 (detection limit of the sandwich test) results from patent CN114671948A.

Sequence of UniProt P0DPI0 (P0DPI0 868-1296 limits assumed): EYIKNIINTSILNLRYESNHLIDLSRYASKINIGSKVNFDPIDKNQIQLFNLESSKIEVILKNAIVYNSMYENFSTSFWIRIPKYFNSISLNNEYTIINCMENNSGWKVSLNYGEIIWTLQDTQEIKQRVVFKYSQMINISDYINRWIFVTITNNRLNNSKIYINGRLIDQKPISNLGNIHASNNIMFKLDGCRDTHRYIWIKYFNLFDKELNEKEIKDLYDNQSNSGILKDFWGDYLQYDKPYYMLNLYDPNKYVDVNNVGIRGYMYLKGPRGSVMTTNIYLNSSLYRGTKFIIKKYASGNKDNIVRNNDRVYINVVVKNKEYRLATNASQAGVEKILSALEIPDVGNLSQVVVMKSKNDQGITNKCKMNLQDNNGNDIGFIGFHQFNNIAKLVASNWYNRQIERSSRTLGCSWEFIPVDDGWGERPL

B1: BoNT/AHc单克隆抗体细胞株401 (monoclonal antibody of hybridoma cell line 401) (antibody)
VH: LTMDFGLSLVFLVLTLKGVKCEVQLVESGGGLVKPGGSLKLSCAASGFAFSTSDMSWVRQTPEKRLEWVTYITSGAGNTNYPDTVKGRFTISRDNAKNTLYVQMSSLKSEDTAMYYCARQSRWSLALDYWGQGTLVTVSAAKTTPPSVYPLAPVCGG
VL: LTMETDTLLLWVLLLWVPGSTGDIVLTQSPASLAVSLGQRATISYRGSNSVSISAYSYMHWNQQKPGQPPRLLIYLVWNQESGVPARFSGSGSGTDFTLNIHPVEEEDAATYYCQHITELTRSEGGPSWKSNGLMLHQLYPSPTIQ
For B1, the 检测限 (detection limit of the sandwich test) came to 20 ng/mL.

B2: BoNT/AHc单克隆抗体细胞株1103 (monoclonal antibody of hybridoma cell line 1103) (antibody)
VH: LTMNFGLSWVFLLTLLHGFQCEVKLVKSGGGSVQPGGSLRLSCTTSGFTFSDSYMQWVRQPLGKRLEWITAGRHKANEYTTEWSASTRGRFIVSRDTSQSILNLQMNALRTEDPAISYCARDDCPHFILPRSYYFFDIWGAGTTVTVSSAKTTPPSVYPLAPVCGG
VL: DIVLTQSPASLAVSLGQRATISYRPSKSVSTSRYSYMHWNQQKPGQPPRLLIYLESNLASGVPARFSGSGSGTDFTLNIHPVEEEDAATYYCQLITELTRSEGGPSWKYNGLMLHQLYP
In the case of B2, the 检测限 (detection limit of the sandwich test) amounted to 20 ng/mL.
